Publication PMC11178655, “Dosimetry and pharmacokinetics of [^177Lu]Lu-satoreotide tetraxetan in patients with progressive neuroendocrine tumours” (European Journal of Nuclear Medicine and Molecular Imaging, 2024)
Where a SMILES comes first, the peptide text is derived from it. Bridges are numbered along the chain shown (N, C = ends). [ ]: non-standard residue; d: D form. The star is where a group is joined. DOTA = O=C(O)CN1CCN(CC(=O)O)CCN(CC(=O)*)CCN(CC(=O)O)CC1; dPhe(4-NHCONH2) = NC(=O)Nc1ccc(C[C@@H](N)C(=O)O)cc1; Dihydroorotyl(S) = O=C1C[C@@H](C(=O)*)NC(=O)N1; Phe(4-Cl) = N[C@@H](Cc1ccc(Cl)cc1)C(=O)O; Phe(4-NH2) = Nc1ccc(C[C@H](N)C(=O)O)cc1

Tested on: patients with progressive, SSTR-positive NETs
Assay: Patient-specific image-based dosimetry (NUKDOS) of tumours and organs, phase I/II trial
Format: in vivo, human
Details: median (range)
Method: In both parts A and B of the study, patients underwent planar whole-body imaging at 4 h and 1, 2, 3, and 6 days after each [^177Lu]Lu-satoreotide tetraxetan treatment cycle. Patients in part A also underwent single-photon emission computed tomography/computed tomography (SPECT/CT) at 24 h after each [^177Lu]Lu-satoreotide tetraxetan cycle. Those in part B underwent SPECT/CT, immediately before or after planar scintigraphy, at 4 h, and 1, 2, 3, and 6 days after each [^177Lu]Lu-satoreotide tetraxetan administration. Full details of the image acquisition methodology are provided in the Supplementary Information.
Delineation of tumour volumes was performed on anatomical SPECT/CT images after each [^177Lu]Lu-satoreotide tetraxetan administration. Tumours with a longest diameter < 2 cm were not analysed due to the difficulty in correcting for partial volume effects caused by the limited spatial resolution of the SPECT/CT systems. For study inclusion in part A, one tumour lesion ≥ 2 cm must have been present for eligibility; in part B, two or more tumour lesions ≥ 2 cm must have been present, each with an uptake on SSTR imaging higher than that of normal liver parenchyma (target lesion on [^68Ga]Ga-DOTA-TATE or -DOTA-TOC positron emission tomography: maximum standardised uptake value [SUVmax] ≥ 2x the mean SUV [SUVmean] of liver background; or ^111In-scintigraphy/SPECT: Krenning score 3 or 4 [uptake > normal liver, or uptake > spleen or kidneys, respectively [26]]).
Reconstruction parameters were set up to produce isotropic voxels of < 5 mm; voxels were continuous throughout the field of view. Anatomic coverage of the acquisition was determined according to the patients’ tumour locations on the planar whole-body scan acquisition with liver, both kidneys and spleen in the same bed position. For organs showing [^177Lu]Lu-satoreotide tetraxetan uptake, regions of interest (ROIs)/volumes of interest (VOIs) were drawn manually over the whole organs of interest (whole body, left and right kidneys, liver, spleen, and bone marrow), using the NUKDOS software for planar whole-body scans and the SPECT/CT acquired in part A [27]. VOIs for the same organs were drawn for all SPECT/CT images acquired in part B. All ROIs/VOIs were then used for activity quantification. Time-integrated activity coefficients (TIACs) for a given source volume were computed by integrating the time-activity curves. Full details of the tumour delineation and activity quantification methodology are provided in the Supplementary Information.
Patient-specific dosimetry calculations were performed after each treatment cycle in both parts A and B, using the absorbed dose calculation features of the NUKDOS software for image-based dosimetry calculations. The NUKDOS software was chosen as it allowed for an integral approach to organ dosimetry (including image quantification, time-activity curve-fitting and dosimetry calculation). For the bone marrow, both image-based and blood-based calculations were performed in part A [28, 29]. In part B, only image-based bone marrow dosimetry was performed. Organ Level INternal Dose Assessment/EXponential Modelling (OLINDA/EXM) version 1.0 software, the most widely used version at the time of the study, was used to perform model-based dosimetry calculations, which were only performed after the first [^177Lu]Lu-satoreotide tetraxetan cycle for patients in part B. To generate organ-specific absorbed doses, TIACs were used as input data. Full details on OLINDA/EXM software settings and organ-specific TIAC calculation methods are provided in the Supplementary Information.
All images were acquired with a 20% energy window around the main photopeak of ^177Lu (208 keV). For scatter correction, the triple-energy window method was applied based on the recommendation of the Committee on Medical Internal Radiation Dose. Whole-body images were acquired with a scanning time of 20 cm/min in a 256 × 1,024 matrix. […]

[1] = Part A (4.5 GBq, 300 µg), image-based dosimetry, n = 11
[2] = Part A (4.5 GBq, 300 µg), n = 7
[3] = Part A (4.5 GBq, 300 µg), n = 9
[4] = Part A (4.5 GBq, 300 µg), n = 11
[5] = Part A (4.5 GBq/cycle), image-based dosimetry, n = 10
[6] = Part A (4.5 GBq/cycle), n/n-les 9/16
[7] = Part A and B, image-based dosimetry, n = 21
[8] = Part B Cohort 1 (6.0 GBq, reduced to 4.5 GBq after three patients; 300 µg), n = 6
[9] = Part B Cohort 1, image-based dosimetry, n = 1
[10] = Part B Cohort 3 (4.5 GBq, 300 µg), n = 9

With C[C@@H](O)[C@@H]1NC(=O)[C@H](CCCCN)NC(=O)[C@@H](Cc2ccc(NC(N)=O)cc2)NC(=O)[C@H](Cc2ccc(NC(=O)[C@@H]3CC(=O)NC(=O)N3)cc2)NC(=O)[C@H](NC(=O)[C@H](Cc2ccc(Cl)cc2)NC(=O)CN2CCN(CC(=O)O)CCN(CC(=O)O)CCN(CC(=O)O)CC2)CSSC[C@@H](C(=O)N[C@H](Cc2ccc(O)cc2)C(N)=O)NC1=O [[^177Lu]Lu-satoreotide tetraxetan, metal not drawn] ({DOTA}-[Phe(4-Cl)][dC][Phe(4-NH2)](Dihydroorotyl(S))[dPhe(4-NHCONH2)]KTC[dY]-NH2; disulfide 2-7 (inferred); C-terminus assumed) the “Cycle 1 ADC, Bone marrow” value [1] was 0.1 (0.0–0.2) Gy/GBq, the “Cycle 3 ADC, Bone marrow” value [1] was 0.1 (0.0–0.2) Gy/GBq and the “Cycle 1 ADC, Liver” value [2] was 0.2 (0.1–0.3) Gy/GBq. For the same compound, the “Cycle 3 ADC, Liver” value [2] was 0.2 (0.1–0.4) Gy/GBq, the “Cycle 1 ADC, Spleen” value [3] was 0.8 (0.2–1.8) Gy/GBq and the “Cycle 3 ADC, Spleen” value [3] was 0.5 (0.3–1.0) Gy/GBq. The “Cycle 1 ADC, Kidneys” value [4] was 1.1 (0.5–1.9) Gy/GBq, the “Cycle 1 ADC, Tumours” value [4] was 2.6 (0.4–14.3) Gy/GBq and the “Cycle 3 ADC, Kidneys” value [4] was 1.0 (0.7–1.8) Gy/GBq. For the same compound, the “Cycle 3 ADC, Tumours” value [4] was 1.7 (0.3–5.0) Gy/GBq, the “Ratio of ADCs Cycle 2/Cycle 1 (300 vs. 300 µg), Bone marrow” value [5] was 89.5 (54.7–152) % and the “Ratio of ADCs Cycle2/Cycle 3 (300 vs. 300 µg), Bone marrow” value [5] was 109 (23.9–297) %. The “Ratio of ADCs Cycle 2/Cycle 1 (300 vs. 300 µg), Spleen” value (Part A (4.5 GBq/cycle), n = 9) was 93.0 (50.0–270) %, the “Ratio of ADCs Cycle2/Cycle 3 (300 vs. 300 µg), Spleen” value (Part A (4.5 GBq/cycle), n = 9) was 127 (81.1–334) % and the “Ratio of ADCs Cycle 2/Cycle 1 (300 vs. 300 µg), Body” value (Part A (4.5 GBq/cycle), n = 11) was 108 (38.3–142) %. For the same compound, the “Ratio of ADCs Cycle 2/Cycle 1 (300 vs. 300 µg), Kidney” value (Part A (4.5 GBq/cycle), n = 11) was 116 (55.8–140) %, the “Ratio of ADCs Cycle2/Cycle 3 (300 vs. 300 µg), Body” value (Part A (4.5 GBq/cycle), n = 11) was 95.4 (69.5–119) % and the “Ratio of ADCs Cycle2/Cycle 3 (300 vs. 300 µg), Kidney” value (Part A (4.5 GBq/cycle), n = 11) was 101 (80.6–179) %. For the same compound, the “Ratio of ADCs Cycle 2/Cycle 1 (300 vs. 300 µg), Liver lesions” value [6] was 91.8 (28.6–156) %, the “Ratio of ADCs Cycle2/Cycle 3 (300 vs. 300 µg), Liver lesions” value [6] was 127 (73.3–343) % and the “Ratio of ADCs Cycle2/Cycle 3 (300 vs. 300 µg), All lesions” value (Part A (4.5 GBq/cycle), n/n-les 11/23) was 125 (73.3–343) %. The “Ratio of ADCs Cycle 2/Cycle 1 (300 vs. 300 µg), All lesions” value (Part A (4.5 GBq/cycle), n/n-les 11/24) was 83.4 (28.6–156) %, the “Cycle 3 ADC, Bone marrow” value [7] was 0.1 (0.0–0.2) Gy/GBq and the “Ratio of Cycle 3/ Cycle 1 ADCs, Bone marrow” value [7] was 105 (22.4–400) %. The “Cycle 1 ADC, Bone marrow” value (Part A and B, image-based dosimetry, n = 29) was 0.1 (0.0–0.6) Gy/GBq, the “Ratio of Cycle 3/ Cycle 1 ADCs, Liver” value (Part A and B, n = 7) was 88.5 (43.8–132) % and the “Ratio of Cycle 3/ Cycle 1 ADCs, Spleen” value (Part A and B, n = 18) was 83.2 (40.9–231) %. For the same compound, the “Ratio of Cycle 3/ Cycle 1 ADCs, Tumours” value (Part A and B, n = 23) was 78.6 (16.0–195) %, the “Ratio of Cycle 3/ Cycle 1 ADCs, Kidneys” value (Part A and B, n = 25) was 98.6 (59.1–198) % and the “Cycle 3 ADC, Liver” value (Part A and B, patient-specific dosimetry, n = 7) was 0.2 (0.1–0.4) Gy/GBq. The “Cycle 1 ADC, Liver” value (Part A and B, patient-specific dosimetry, n = 8) was 0.2 (0.1–0.3) Gy/GBq, the “Cycle 3 ADC, Spleen” value (Part A and B, patient-specific dosimetry, n = 19) was 0.7 (0.3–1.5) Gy/GBq and the “Cycle 3 ADC, Tumours” value (Part A and B, patient-specific dosimetry, n = 24) was 4.0 (0.3–70.3) Gy/GBq. For the same compound, the “Cycle 3 ADC, Kidneys” value (Part A and B, patient-specific dosimetry, n = 26) was 0.8 (0.4–1.8) Gy/GBq, the “Cycle 1 ADC, Spleen” value (Part A and B, patient-specific dosimetry, n = 27) was 0.8 (0.2–1.8) Gy/GBq and the “Cycle 1 ADC, Tumours” value (Part A and B, patient-specific dosimetry, n = 33) was 5.0 (0.4–83.3) Gy/GBq. For the same compound, the “Cycle 1 ADC, Kidneys” value (Part A and B, patient-specific dosimetry, n = 35) was 0.9 (0.4–1.9) Gy/GBq, the “Ratio of Cycle 3/ Cycle 1 ADCs, Bone marrow” value (Part A, image-based dosimetry, n = 11) was 101 (22.4–302) % and the “Ratio of Cycle 3/ Cycle 1 ADCs, Liver” value (Part A, n = 7) was 88.5 (43.8–132) %. For the same compound, the “Ratio of Cycle 3/ Cycle 1 ADCs, Spleen” value (Part A, n = 9) was 61.5 (40.9–231) %, the “Ratio of Cycle 3/ Cycle 1 ADCs, Kidneys” value (Part A, n = 11) was 106 (59.1–139) % and the “Ratio of Cycle 3/ Cycle 1 ADCs, Tumours” value (Part A, n = 11) was 76.7 (16.0–195) %. The “Cycle 1 ADC, Bone marrow” value (Part B Cohort 1 (6.0 GBq, reduced to 4.5 GBq after three patients; 300 µg), image-based dosimetry, n = 6) was 0.1 (0.1–0.6) Gy/GBq, the “Cycle 1 ADC, Liver” value (Part B Cohort 1 (6.0 GBq, reduced to 4.5 GBq after three patients; 300 µg), n = 1) was 0.2 (0.2–0.2) Gy/GBq and the “Cycle 1 ADC, Tumours” value (Part B Cohort 1 (6.0 GBq, reduced to 4.5 GBq after three patients; 300 µg), n = 5) was 3.9 (1.9–83.3) Gy/GBq. The “Cycle 1 ADC, Kidneys” value [8] was 0.7 (0.6–1.0) Gy/GBq, the “Cycle 1 ADC, Spleen” value [8] was 1.0 (0.5–1.1) Gy/GBq and the “Cycle 3 ADC, Bone marrow” value [9] was 0.1 (0.1–0.1) Gy/GBq. The “Ratio of Cycle 3/ Cycle 1 ADCs, Bone marrow” value [9] was 64.3 (64.3–64.3) %, the “Cycle 3 ADC, Kidneys” value (Part B Cohort 1, n = 1) was 0.7 (0.7–0.7) Gy/GBq and the “Cycle 3 ADC, Spleen” value (Part B Cohort 1, n = 1) was 0.5 (0.5–0.5) Gy/GBq. For the same compound, the “Ratio of Cycle 3/ Cycle 1 ADCs, Kidneys” value (Part B Cohort 1, n = 1) was 111 (111–111) %, the “Ratio of Cycle 3/ Cycle 1 ADCs, Spleen” value (Part B Cohort 1, n = 1) was 82.3 (82.3–82.3) % and the “Cycle 1 ADC, Bone marrow” value (Part B Cohort 3 (4.5 GBq, 300 µg), image-based dosimetry, n = 6) was 0.1 (0.1–0.1) Gy/GBq. The “Cycle 1 ADC, Spleen” value (Part B Cohort 3 (4.5 GBq, 300 µg), n = 6) was 1.0 (0.2–1.5) Gy/GBq, the “Cycle 1 ADC, Kidneys” value [10] was 0.9 (0.5–1.2) Gy/GBq and the “Cycle 1 ADC, Tumours” value [10] was 6.8 (2.1–28.2) Gy/GBq. For the same compound, the “Cycle 3 ADC, Bone marrow” value (Part B Cohort 3 (4.5 GBq, 300 µg; 700 µg at cycle 2), image-based dosimetry, n = 6) was 0.1 (0.0–0.1) Gy/GBq and the “Cycle 3 ADC, Spleen” value (Part B Cohort 3 (4.5 GBq, 300 µg; 700 µg at cycle 2), n = 5) was 0.8 (0.3–1.1) Gy/GBq.
